The values below come from US20220175921A1.

Experiment [1] concerns the target human GITR, membrane bound (on activated human T cells or on 3A9-hGITR cells) (UniProt Q9Y5U5). As to the kind of experiment: FACS binding; activated human CD8 T cells. The settings on record: ligand. For orientation: In flow cytometry, cells or beads pass a laser one at a time.
The target is the same in experiment [2]. As to the kind of experiment: cell-based or functional assay.

Sequence of human GITR, membrane bound (on activated human T cells or on 3A9-hGITR cells) (Q9Y5U5 26-241): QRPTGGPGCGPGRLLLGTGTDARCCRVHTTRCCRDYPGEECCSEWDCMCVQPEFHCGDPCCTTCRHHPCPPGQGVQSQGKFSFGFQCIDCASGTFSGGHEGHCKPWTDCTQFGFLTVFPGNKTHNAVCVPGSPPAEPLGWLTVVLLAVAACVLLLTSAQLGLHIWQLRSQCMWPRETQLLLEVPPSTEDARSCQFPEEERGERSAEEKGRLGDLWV
Sequence of recombinant human GITR ligand trimer (R&D Systems 6987-GL) (Q9UNG2 49-177): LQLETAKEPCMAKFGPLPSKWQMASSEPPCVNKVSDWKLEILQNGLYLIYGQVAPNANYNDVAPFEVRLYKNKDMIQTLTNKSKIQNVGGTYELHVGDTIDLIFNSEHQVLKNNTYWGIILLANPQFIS

“recombinant human GITR ligand trimer (R&D Systems 6987-GL) (from UniProt Q9UNG2 49-177)”: the IC50 (usually the concentration that gives 50% inhibition) in experiment [1] came out at 0.0163 µg/mL.
As for hIgG1 Isotype Control (antibody), in experiment [2], the NFKB signaling (phospho-p65) Emax, CD4+ T cells was 4% and the NFKB signaling (phospho-p65) Emax, CD8+ T cells worked out at 6%.
